# Measured values reported in patent publication US20200209227A1 (published 2020).
# T1: Rh5 (UniProt Q8IFM5 25-526)
# T1 sequence: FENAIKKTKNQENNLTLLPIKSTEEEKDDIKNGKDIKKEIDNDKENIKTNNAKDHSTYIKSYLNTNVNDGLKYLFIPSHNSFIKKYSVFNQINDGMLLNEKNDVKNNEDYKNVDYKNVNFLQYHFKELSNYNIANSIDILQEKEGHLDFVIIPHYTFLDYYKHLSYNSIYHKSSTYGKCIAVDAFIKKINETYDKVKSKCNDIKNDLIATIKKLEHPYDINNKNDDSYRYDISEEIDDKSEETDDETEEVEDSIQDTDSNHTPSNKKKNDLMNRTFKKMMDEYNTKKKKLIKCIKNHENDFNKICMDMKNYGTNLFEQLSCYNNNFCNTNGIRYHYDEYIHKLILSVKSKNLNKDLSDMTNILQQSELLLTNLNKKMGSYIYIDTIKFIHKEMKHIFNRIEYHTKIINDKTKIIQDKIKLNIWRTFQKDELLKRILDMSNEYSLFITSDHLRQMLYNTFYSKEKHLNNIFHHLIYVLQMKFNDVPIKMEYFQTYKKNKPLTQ
# Biological target: T1, Rh5
# Assay: BSI, free solution, label-free
binder,measurement,value
"Basigin (receptor, If it applies, basigin was whole, on human erythrocytes) AAGTVFTTVEDLGSKILLTCSLNDSATEVTGHRWLKGGVVLKEDALPGQKTEFKVDSDDQWGEYSCVFLPEPMGTANIQLHGPPRVKAVKSSEHINEGETAMLVCKSESVPPVTDWAWYKITDSEDKALMNGSESRFFVSSSQGRSELHIENLNMEADPGQYRCNGTSSKGSDQAIITLRVRSH",Kd,1.08 µM
